Columns and labels:
[1] = target: T1, PEAR1 ectodomain, monomeric biotinylated bait (human, UniProt Q5VY43 21-755, biotin (on the biotinylatable peptide tag)); experiment: SPR; kinetic analysis
T1 chain: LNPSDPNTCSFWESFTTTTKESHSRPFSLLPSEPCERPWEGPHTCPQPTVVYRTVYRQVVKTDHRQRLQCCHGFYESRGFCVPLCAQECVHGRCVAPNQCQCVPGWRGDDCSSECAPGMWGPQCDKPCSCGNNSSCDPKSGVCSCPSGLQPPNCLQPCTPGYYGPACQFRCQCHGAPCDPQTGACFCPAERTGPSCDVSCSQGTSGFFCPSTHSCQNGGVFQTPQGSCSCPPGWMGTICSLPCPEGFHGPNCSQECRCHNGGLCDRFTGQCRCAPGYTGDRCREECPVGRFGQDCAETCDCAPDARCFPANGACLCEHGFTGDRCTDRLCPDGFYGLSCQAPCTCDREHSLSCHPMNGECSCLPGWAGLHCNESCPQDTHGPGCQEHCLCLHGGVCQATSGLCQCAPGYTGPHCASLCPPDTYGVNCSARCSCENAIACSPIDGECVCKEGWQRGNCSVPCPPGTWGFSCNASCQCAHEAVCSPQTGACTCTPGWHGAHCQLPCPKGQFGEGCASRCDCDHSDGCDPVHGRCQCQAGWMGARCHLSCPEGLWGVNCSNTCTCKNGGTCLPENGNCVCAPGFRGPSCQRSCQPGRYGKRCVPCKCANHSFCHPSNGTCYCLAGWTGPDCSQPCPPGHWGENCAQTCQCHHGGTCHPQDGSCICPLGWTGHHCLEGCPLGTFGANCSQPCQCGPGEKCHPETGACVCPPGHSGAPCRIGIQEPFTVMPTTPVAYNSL

[2] = target: T2, PEAR1 ectodomain, monomeric biotinylated bait (human, UniProt Q5VY43 21-755, biotin (on the biotinylatable peptide tag)); experiment: SPR; Biacore T100; PEAR1 immobilised; seven serial dilutions of FcεR1α-Cd4-His6 injected at 100 μl/min; kinetic analysis, 1:1 binding model; conditions: both partners purified
T2 construct: human platelet endothelium aggregation receptor 1 (PEAR1), whole ectodomain; also called PEAR1 bait; immobilized PEAR1; source: HEK293E, transient transfection, purified (Ni2+-NTA via His6)
T2 sequence (looked up): T1 chain

[3] = target: T2, PEAR1 ectodomain, monomeric …; experiment: SPR; Biacore T100; PEAR1 immobilised; gel-filtered monomeric FcεR1α-Cd4-His6 serially diluted and injected at 10 μl/min until equilibrium; reference-subtracted; equilibrium analysis; conditions: both partners purified

koff [1]: 0.0788 s⁻¹ | stoichiometry N [2]: 1 | Kd [3]: 27.4 ± 1.3 nM
B1: FcεR1α-Cd4-His6, purified monomeric soluble protein (receptor, human, UniProt P12319 26-205, looked up)
chain: VPQKPKVSLNPPWNRIFKGENVTLTCNGNNFFEVSSTKWFHNGSLSEETNSSLNIVNAKFEDSGEYKCQHQQVNESEPVYLEVFSDWLLLQASAEVVMEGQPLFLRCHGWRNWDVYKVIYYKDGEALKYWYENHNISITNATVEDSGTYYCTGKVWQLDYESEPLNITVIKAPREKYWLQ
notes: also called soluble FcεR1α-Cd4-His6; source: HEK293E, transient transfection, purified (His6), resolved by gel filtration just prior to use

From PMC4424398, “A Human Platelet Receptor Protein Microarray Identifies the High Affinity Immunoglobulin E Receptor Subunit α (FcεR1α) as an Activating Platelet Endothelium Aggregation Receptor 1 (PEAR1) Ligand* ^([image sbox.jpg])” (Molecular & Cellular Proteomics : MCP, 2015)
